Results as given in article PMC4666372 (Nucleic Acids Research, 2015).

Biological target: T1, His-tagged TopA67 (N-terminal region of TopA, 67 kDa, residues 1-597) (E. coli, UniProt P06612 1-597)
T1 construct: DNA topoisomerase I (TopA) of E. coli, residues 1-597; source: E. coli BL21(DE3), 1 mM IPTG 3 h 37°C, purified (Ni-NTA agarose); not shown: His-tag, N-terminal, kept
T1 sequence (looked up): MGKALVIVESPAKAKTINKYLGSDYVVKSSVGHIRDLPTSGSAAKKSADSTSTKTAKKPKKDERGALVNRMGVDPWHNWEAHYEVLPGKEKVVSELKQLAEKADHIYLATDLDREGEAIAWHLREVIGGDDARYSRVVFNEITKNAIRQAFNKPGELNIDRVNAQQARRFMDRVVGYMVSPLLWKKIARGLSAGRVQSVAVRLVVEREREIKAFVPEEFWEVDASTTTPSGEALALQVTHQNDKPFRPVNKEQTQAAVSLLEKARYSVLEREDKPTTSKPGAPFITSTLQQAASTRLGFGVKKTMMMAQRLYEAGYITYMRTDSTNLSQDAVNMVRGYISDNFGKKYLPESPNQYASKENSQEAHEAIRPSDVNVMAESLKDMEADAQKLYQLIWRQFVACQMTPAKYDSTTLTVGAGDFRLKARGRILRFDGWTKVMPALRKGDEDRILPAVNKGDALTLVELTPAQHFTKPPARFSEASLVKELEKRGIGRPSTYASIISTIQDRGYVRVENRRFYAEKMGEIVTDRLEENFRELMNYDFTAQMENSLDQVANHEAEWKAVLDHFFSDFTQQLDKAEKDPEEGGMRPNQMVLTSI
Assay: co-IP; purified PrS-TopAI and TopA, TopA67 or TopA14 at a molar ratio of 1:5 in buffer A (20 mM Tris-HCl pH 8.0, 150 mM NaCl), in the absence of DNA; anti-protein S antiserum, protein G agarose, 4°C; western blot with anti-His antibody
Conditions: both partners purified

B1: PrS-TopAI (N-terminal domain of Protein S fused to TopAI, His-tagged) (natural protein)
chain: not shown
notes: also called PrS-YjhX; YjhX
binding result: binds
